These results are taken from patent publication US20250282852A1.

The target in assay [1] is biotinylated oligomeric Aβ1-42 (UniProt P05067). Put plainly: Octet 96e (printed as 'SPR system'), biotinylated oligomeric Aβ1-42 on streptavidin biosensor, CD22 extracellular domain at various concentrations in solution.
For assay [2] the target is unchanged. Put plainly: Octet biolayer interferometry, biotinylated oligomeric Aβ on streptavidin biosensor, hCD22-His in solution.

Regarding “extracellular domain of CD22 (Sino Biological) (receptor)”, the Kd in assay [1] stood at 2.79 nM. In assay [2], the koff came out at 0.000522 s⁻¹ and the kon turned out to be 186000 M⁻¹ s⁻¹.
